The target of this assay is HLA-A*02:01 (Homo sapiens, UniProt P04439, D140Y/D185E/D98H/E176V/E277Q/G131W/G231S/I119V/I121R/I166T/I218V/L300P/L318F/N151K/N90K/P208A/P217A/Q86G/Q94H/R138H/R169H/T345S). As to the kind of experiment: MHC binding assay (UV-ligand exchange, ELISA, peptide exchange yield). Particulars: binding of HLA-class I restricted peptides to HLA-A*02:01. The text has this:
Candidate peptides for T cell based therapies according to the present invention were further tested for their MHC binding capacity (affinity). The individual peptide-MHC complexes were produced by UV-ligand exchange, where a UV-sensitive peptide is cleaved upon UV-irradiation, and exchanged with the peptide of interest as analyzed. Only peptide candidates that can effectively bind and stabilize the peptide-receptive MHC molecules prevent dissociation of the MHC complexes. To determine the yield of the exchange reaction, an ELISA was performed based on the detection of the light chain ([…]) of stabilized MHC complexes. The assay was performed as generally described in Rodenko et al. (Rodenko et al., 2006).
96 well MAXISorp plates (NUNC) were coated over night with 2-ug/ml streptavidin in PBS at room temperature, washed 4× and blocked for 1 h at 37° C. in 2% BSA containing blocking buffer. […] Peptide-MHC monomers of the UV-exchange reaction were diluted 100 fold in blocking buffer. Samples were incubated for 1 h at 37° C., washed four times, incubated with 2-ug/ml HRP conjugated anti-β2m for 1 h at 37° C., washed again and detected with TMB solution that is stopped with […]. Absorption was measured at 450 nm. Candidate peptides that show a high exchange yield (preferably higher than 50%, most preferred higher than 75%) are generally preferred for a generation and production of antibodies or fragments thereof, and/or T cell receptors or fragments thereof, as they show sufficient avidity to the MHC molecules and prevent dissociation of the MHC complexes.
(In general: An ELISA detects its analyte on a solid surface through an enzyme-linked reagent.)

Consider “40 (TLLVKVFSV; listed as Homo sapiens) [compound 40]”, for which the “Peptide exchange (MHC class I binding score, peptide exchange yield)” value (“Peptide exchange” below) is “″+++″ (≥50% = +++)”.

As to “585 (ALWDLAADKQTL; listed as Homo sapiens) [compound 585]”, the “Peptide exchange” value was “″++++″ (≥75% = ++++)”.

For the substance “522 (TLWYRSPEV; listed as Homo sapiens) [compound 522]”, the “Peptide exchange” value is “″++″ (≥20% = ++)”.

For the substance “607 (RLYSGISGLEL; listed as Homo sapiens) [compound 607]”, the “Peptide exchange” value is given as “″+++″ (≥50% = +++)”.

As for “374 (FLLQQHLISA; listed as Homo sapiens) [compound 374]”, the “Peptide exchange” value is on record as “″++″ (≥20% = ++)”.

For “12 (SLWPDPMEV; listed as Homo sapiens) [compound 12]”, the “Peptide exchange” value is given as “″+++″ (≥50% = +++)”.

On to “246 (LLWEVVSQL; listed as Homo sapiens) [compound 246]”, for which the “Peptide exchange” value was “″+++″ (≥50% = +++)”.

As for “218 (SALEELVNV; listed as Homo sapiens) [compound 218]”, the “Peptide exchange” value is given as “″++″ (≥20% = ++)”.

With “29 (KMLGIPISNILMV; listed as Homo sapiens) [compound 29]”, the “Peptide exchange” value was “″+++″ (≥50% = +++)”.

Turning to “142 (FLFATPVFI; listed as Homo sapiens) [compound 142]”, the “Peptide exchange” value is on record as “″+++″ (≥50% = +++)”.

For the substance “245 (SMIDDLLGV; listed as Homo sapiens) [compound 245]”, the “Peptide exchange” value was “″+++″ (≥50% = +++)”.

Consider “25 (FLPDEPYIKV; listed as Homo sapiens) [compound 25]”, for which the “Peptide exchange” value is “″+++″ (≥50% = +++)”.

For “165 (SLLDEIRAV; listed as Homo sapiens) [compound 165]”, the “Peptide exchange” value is on record as “″+++″ (≥50% = +++)”.

As to “160 (FLFDEEIEQI; listed as Homo sapiens) [compound 160]”, the “Peptide exchange” value was “″+++″ (≥50% = +++)”.

For “474 (YLDPALELGPRNV; listed as Homo sapiens) [compound 474]”, the “Peptide exchange” value was “″+++″ (≥50% = +++)”.

As for “248 (FLFPNQYVDV; listed as Homo sapiens) [compound 248]”, the “Peptide exchange” value is given as “″+++″ (≥50% = +++)”.

Consider “399 (YLFEPLYHV; listed as Homo sapiens) [compound 399]”, for which the “Peptide exchange” value is recorded as “″+++″ (≥50% = +++)”.

For “140 (YMDAPKAAL; listed as Homo sapiens) [compound 140]”, the “Peptide exchange” value is “″++″ (≥20% = ++)”.

On to “376 (AMFESSQNVLL; listed as Homo sapiens) [compound 376]”, for which the “Peptide exchange” value was “″++″ (≥20% = ++)”.

Consider “26 (ALLELAEEL; listed as Homo sapiens) [compound 26]”, for which the “Peptide exchange” value is listed as “″+++″ (≥50% = +++)”.

Take “487 (LLINSVFHV; listed as Homo sapiens) [compound 487]”: the “Peptide exchange” value was “″+++″ (≥50% = +++)”.

On to “454 (KLPPPPPQA; listed as Homo sapiens) [compound 454]”, for which the “Peptide exchange” value is “″+++″ (≥50% = +++)”.

Regarding “193 (QLLDADGFLNV; listed as Homo sapiens) [compound 193]”, the “Peptide exchange” value is “″+++″ (≥50% = +++)”.

Take “502 (RLLAQVPGL; listed as Homo sapiens) [compound 502]”: the “Peptide exchange” value was “″+++″ (≥50% = +++)”.

For the substance “161 (ALLEGVNTV; listed as Homo sapiens) [compound 161]”, the “Peptide exchange” value was “″+++″ (≥50% = +++)”.

With “93 (LLQAIKLYL; listed as Homo sapiens) [compound 93]”, the “Peptide exchange” value is reported as “″++″ (≥20% = ++)”.

“495 (FIFSEKPVFV; listed as Homo sapiens) [compound 495]”: the “Peptide exchange” value is given as “″+++″ (≥50% = +++)”.

In the case of “597 (KLLEGQVIQL; listed as Homo sapiens) [compound 597]”, the “Peptide exchange” value is on record as “″+++″ (≥50% = +++)”.

For “593 (GLPRFGIEMV; listed as Homo sapiens) [compound 593]”, the “Peptide exchange” value is listed as “″+++″ (≥50% = +++)”.

Consider “402 (VLFSGALLGL; listed as Homo sapiens) [compound 402]”, for which the “Peptide exchange” value was “″++″ (≥20% = ++)”.

Take “554 (LLMPSSEDLLL; listed as Homo sapiens) [compound 554]”: the “Peptide exchange” value was “″+++″ (≥50% = +++)”.

Regarding “136 (YLADPSNLFVV; listed as Homo sapiens) [compound 136]”, the “Peptide exchange” value is listed as “″+++″ (≥50% = +++)”.

“337 (HLLSELEAAPYL; listed as Homo sapiens) [compound 337]”: the “Peptide exchange” value is recorded as “″++++″ (≥75% = ++++)”.

In the case of “187 (RQISIRGIVGV; listed as Homo sapiens) [compound 187]”, the “Peptide exchange” value is recorded as “″+++″ (≥50% = +++)”.

“307 (ALPVSLPQI; listed as Homo sapiens) [compound 307]”: the “Peptide exchange” value is recorded as “″+++″ (≥50% = +++)”.

As for “182 (MLLEAPGIFL; listed as Homo sapiens) [compound 182]”, the “Peptide exchange” value was “″+++″ (≥50% = +++)”.

Consider “372 (TMLLNIPLV; listed as Homo sapiens) [compound 372]”, for which the “Peptide exchange” value was “″++″ (≥20% = ++)”.

Regarding “455 (SLLKEPQKVQL; listed as Homo sapiens) [compound 455]”, the “Peptide exchange” value was “″++″ (≥20% = ++)”.

With “594 (IMLKGDNITL; listed as Homo sapiens) [compound 594]”, the “Peptide exchange” value is given as “″+++″ (≥50% = +++)”.

Turning to “210 (LLLNAVLTV; listed as Homo sapiens) [compound 210]”, the “Peptide exchange” value is listed as “″++″ (≥20% = ++)”.

Consider “121 (GVVDPRAISVL; listed as Homo sapiens) [compound 121]”, for which the “Peptide exchange” value is “″++″ (≥20% = ++)”.

Regarding “166 (YLNHLEPPV; listed as Homo sapiens) [compound 166]”, the “Peptide exchange” value is “″+++″ (≥50% = +++)”.

In the case of “386 (ILFRYPLTI; listed as Homo sapiens) [compound 386]”, the “Peptide exchange” value was “″+++″ (≥50% = +++)”.

Take “573 (ILVANAIVGV; listed as Homo sapiens) [compound 573]”: the “Peptide exchange” value is reported as “″+++″ (≥50% = +++)”.

As for “301 (FLVEDLVDSL; listed as Homo sapiens) [compound 301]”, the “Peptide exchange” value is “″+++″ (≥50% = +++)”.

Take “129 (GLLDGGVDILL; listed as Homo sapiens) [compound 129]”: the “Peptide exchange” value was “″+++″ (≥50% = +++)”.

For the substance “196 (YLYSVEIKL; listed as Homo sapiens) [compound 196]”, the “Peptide exchange” value was “″++++″ (≥75% = ++++)”.

As to “60 (SLTIDGIYYV; listed as Homo sapiens) [compound 60]”, the “Peptide exchange” value is recorded as “″++++″ (≥75% = ++++)”.

As for “383 (ALLELENSVTL; listed as Homo sapiens) [compound 383]”, the “Peptide exchange” value is given as “″+++″ (≥50% = +++)”.

Regarding “35 (KINDTIYEV; listed as Homo sapiens) [compound 35]”, the “Peptide exchange” value was “″+++″ (≥50% = +++)”.

On to “41 (SLMPHIPGL; listed as Homo sapiens) [compound 41]”, for which the “Peptide exchange” value is “″+++″ (≥50% = +++)”.

Consider “285 (QLLHVGVTV; listed as Homo sapiens) [compound 285]”, for which the “Peptide exchange” value is “″+++″ (≥50% = +++)”.

For the substance “548 (ALWENPESGEL; listed as Homo sapiens) [compound 548]”, the “Peptide exchange” value is recorded as “″++″ (≥20% = ++)”.

Regarding “227 (ALMNTLLYL; listed as Homo sapiens) [compound 227]”, the “Peptide exchange” value is “″++″ (≥20% = ++)”.

“24 (SLSDGLEEV; listed as Homo sapiens) [compound 24]”: the “Peptide exchange” value is reported as “″++″ (≥20% = ++)”.

Turning to “275 (YLVYILNEL; listed as Homo sapiens) [compound 275]”, the “Peptide exchange” value is recorded as “″++″ (≥20% = ++)”.
